This experiment addresses purified human recombinant Src (human) (UniProt P12931). Nature of the experiment: in vitro competition; Src pre-incubated with peptide, GST-CD2 pull-down as competitor.

The IC50 is the concentration needed to halve the response being measured.

Regarding “pNaSH2 (TAT-tagged CD2-derived peptide phosphorylated at Y260)”, the IC50 is 500 nM.

For the origin of these results see patent US20170183639A1.
